Measured values reported in the supplement of paper PMC10126150.
± gives the standard deviation of the averaged measurements.

Tested on: ATP
Assay: switch fluorescence ratio, 500 uM ATP over buffer (Cy3 cluster intensity, sum of 5 cycles each) (fold (ratio)); higher = stronger signal-on switching upon ATP binding; sequences stand for … in TCGTCGGCAGCGTCAGATGTGTATAAGAGACAGTTTTTTTTTTTTTTTTTTTTTTTTT…TC
Settings: aptamer strand: ATP DNA aptamer (quencher-CACCTGGGGGAGTATTGCGGAGGAAGG + anchor), 100 nM annealed; ATP concentration: 500 uM
Method in brief: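 Between each of five buffer/ATP cycles, the flow-cell was stripped with NaOH and re-annealed. Each cycle imaged Cy3-labelled switching-strand clusters, annealed to 100 nM quencher-labelled ATP aptamer on a modified Illumina MiSeq flow-cell, first in selection buffer and then after 15 min with 500 uM ATP at 22 °C. The fluorescence ratio is summed target-cycle over summed buffer-cycle Cy3 intensity per cluster, averaged per switch-domain sequence, with clusters outside 100-1000 RFU excluded.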
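Also: ATP exposure 15 min at 22 °C before imaging.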

Row | Sequence | switch fluorescence ratio
1 | TGATAGAGGA | 0.988 ± 0.059
2 | TGATAGGGTC | 1.06 ± 0.11
3 | TGATAGTGAT | 0.988 ± 0.024
4 | TGATAGTTGA | 1.005 ± 0.0026
5 | TGATATAGCA | 1.03 ± 0.013
6 | TGATATCCGA | 1.04 ± 0.013
7 | TGATATTGG | 0.971 ± 0.045
8 | TGATATTTCT | 1 ± 0.011
9 | TGATCAAATG | 0.989 ± 0.023
10 | TGATCACACG | 1.024 ± 0.01
11 | TGATCAGGGG | 1.03 ± 0.021
12 | TGATCCTTGG | 1.03 ± 0.031
13 | TGATCGTCGG | 1.02 ± 0.013
14 | TGATCTAGGC | 0.98 ± 0.074
15 | TGATCTTTCT | 1.01 ± 0.059
16 | TGATGACCAT | 1.006 ± 0.0079
17 | TGATGATGAC | 1.01 ± 0.0038
18 | TGATGATGAG | 0.996 ± 0.013
19 | TGATGATTTC | 1.009 ± 0.009
20 | TGATGGCATT | 0.9893 ± 0.0071
21 | TGATGGCCCG | 1.03 ± 0.092
22 | TGATGGCGTT | 1 ± 0.031
23 | TGATGGGGCT | 0.975 ± 0.038
24 | TGATGGGTAT | 1 ± 0.028
25 | TGATGGGTTG | 1 ± 0.03

Row | Sequence | switch fluorescence ratio
26 | TGATGTTAGC | 1.03 ± 0.036
27 | TGATGTTGTC | 0.988 ± 0.033
28 | TGATTAATGT | 0.9996 ± 0.0099
29 | TGATTAGTCG | 1.01 ± 0.023
30 | TGATTATTGG | 1 ± 0.061
31 | TGATTCAGGG | 1.028 ± 0.0081
32 | TGATTCTCGT | 1.02 ± 0.018
33 | TGATTGAAGC | 1.03 ± 0.032
34 | TGATTGAGTT | 1 ± 0.016
35 | TGATTGGCTG | 1.02 ± 0.045
36 | TGATTGGGGG | 0.989 ± 0.031
37 | TGATTGGGTA | 1 ± 0.019
38 | TGATTGGGTG | 1.01 ± 0.054
39 | TGATTGTAAT | 0.9655 ± 0.0069
40 | TGATTGTGCG | 0.957 ± 0.021
41 | TGATTTAGGC | 0.9803 ± 0.009
42 | TGATTTGGCA | 1.02 ± 0.0023
43 | TGATTTGGCT | 1.02 ± 0.031
44 | TGATTTTAAG | 0.999 ± 0.018
45 | TGATTTTAGA | 0.974 ± 0.052
46 | TGATTTTTAT | 1.011 ± 0.0089
47 | TGATTTTTTA | 0.992 ± 0.025
48 | TGCAAAGGGC | 1.01 ± 0.015
49 | TGCAACCTTG | 1.0397 ± 0.0007
50 | TGCAACCTTT | 1.02 ± 0.014

Row | Sequence | switch fluorescence ratio
51 | TGCAACGGGT | 1.02 ± 0.018
52 | TGCAACTTTT | 1.01 ± 0.019
53 | TGCAAGAAGG | 0.9832 ± 0.0053
54 | TGCAAGCGAC | 2.61 ± 0.18
55 | TGCAAGTGAA | 0.997 ± 0.053
56 | TGCAAGTTTT | 1.24 ± 0.33
57 | TGCAATGTAG | 1.082 ± 0.0029
58 | TGCAATTCAG | 1.14 ± 0.012
59 | TGCAATTTTT | 1.04 ± 0.077
60 | TGCACACGTG | 0.9787 ± 0.0068
61 | TGCACCTTGG | 1.014 ± 0.0099
62 | TGCACTGGGA | 1.04 ± 0.034
63 | TGCAGAAGGT | 0.992 ± 0.03
64 | TGCAGATTTC | 0.9978 ± 0.0088
65 | TGCAGCAGGT | 1.18 ± 0.025
66 | TGCAGCATGA | 1.333 ± 0.008
67 | TGCAGCATTA | 2.31 ± 0.19
68 | TGCAGCTGTA | 1.04 ± 0.014
69 | TGCAGGGACG | 1 ± 0.03
70 | TGCAGGGCAA | 1.02 ± 0.044
71 | TGCAGGGCGT | 1.01 ± 0.031
72 | TGCAGGGGTC | 1.02 ± 0.025
73 | TGCAGTCTAG | 1.07 ± 0.15
74 | TGCAGTTTTT | 0.999 ± 0.029
75 | TGCATACGGC | 1.04 ± 0.07

Row | Sequence | switch fluorescence ratio
76 | TGCATAGGGA | 1.01 ± 0.035
77 | TGCATGAAGC | 1.034 ± 0.0057
78 | TGCATGATCG | 1.02 ± 0.033
79 | TGCATGGAGC | 0.9946 ± 0.0042
80 | TGCATGGATC | 1.02 ± 0.012
81 | TGCATGGGAG | 1.001 ± 0.0039
82 | TGCATGTCGC | 0.991 ± 0.025
83 | TGCATTTTGC | 1.08 ± 0.023
84 | TGCCAAATAG | 1.02 ± 0.039
85 | TGCCAATGAA | 0.965 ± 0.02
86 | TGCCAATGGG | 1 ± 0.038
87 | TGCCAGAAGG | 1.021 ± 0.0041
88 | TGCCAGGATT | 1.25 ± 0.42
89 | TGCCAGTTCG | 1.02 ± 0.025
90 | TGCCCGCCCT | 1.08 ± 0.065
91 | TGCCCGCTGC | 1.27 ± 0.017
92 | TGCCCGGACA | 1.01 ± 0.027
93 | TGCCCGGTTT | 1.01 ± 0.0077
94 | TGCCCTTCAT | 1.04 ± 0.011
95 | TGCCGAGGTG | 1.38 ± 0.12
96 | TGCCGGGAAA | 1.01 ± 0.0084
97 | TGCCGGTGGT | 1.01 ± 0.035
98 | TGCCGTGGGT | 0.987 ± 0.04
99 | TGCCTAGTTT | 0.995 ± 0.064
100 | TGCCTTAAGT | 1.01 ± 0.063
